{"source": "paper PMC3904923", "about": "“Pivoting between Calmodulin Lobes Triggered by Calcium in the Kv7.2/Calmodulin Complex” (PLoS ONE, 2014)", "details_in_all_cases": "both partners purified", "key": {"[1]": {"molecular_target": "T1, dansylated calmodulin (rat, UniProt P0DP30 1-149, dansyl group covalently bound to CaM (position not given))", "T1 construct": "calmodulin, rat brain, NM_017326; also called D-CaM; dansyl-CaM", "experiment": "other fluorescence titration; 12.5 nM D-CaM, ligand added incrementally, enhancement of dansyl emission; D-CaM binding buffer with 3.9 µM free Ca2+ (9.63 mM Ca2+, 2 mM Mg2+, 10 mM EGTA, pH 7.4); apparent affinity (EC50 of a Hill fit)"}, "[2]": {"molecular_target": "T2, CaM N-lobe (residues 1–78) (human, UniProt P0DP23 2-79)", "T2 construct": "human calmodulin N-lobe, residues 1-78; cDNA from the group of Daniel L. Minor Jr; also called N-domain; CaM 1–78; source: produced as described previously [28], purified", "experiment": "other fluorescence titration; competition: 12.5 nM D-CaM mixed with helix A (65.6 nM) or helix B (42.6 nM), isolated lobe added incrementally; with Ca2+; one site Hill fit, Kd derived assuming 1:1 binding"}, "[3]": {"molecular_target": "T3, CaM C-lobe (residues 79–148) (human, UniProt P0DP23 80-149)", "T3 construct": "human calmodulin C-lobe, residues 79-148; cDNA from the group of Daniel L. Minor Jr; also called C-domain; CaM 79–148; source: produced as described previously [28], purified", "experiment": "other fluorescence titration; competition: 12.5 nM D-CaM mixed with helix A (65.6 nM) or helix B (42.6 nM), isolated lobe added incrementally; with Ca2+; one site Hill fit, Kd derived assuming 1:1 binding"}, "[4]": {"molecular_target": "T2, CaM N-lobe (residues 1–78)", "experiment": "other fluorescence titration; competition: 12.5 nM D-CaM mixed with helix A (46.4 nM) or helix B (20.1 nM), isolated lobe added incrementally; no Ca2+; one site Hill fit, Kd derived assuming 1:1 binding"}, "[5]": {"molecular_target": "T3, CaM C-lobe (residues 79–148)", "experiment": "other fluorescence titration; competition: 12.5 nM D-CaM mixed with helix A (46.4 nM) or helix B (20.1 nM), isolated lobe added incrementally; no Ca2+; one site Hill fit, Kd derived assuming 1:1 binding"}, "[6]": {"molecular_target": "T1, dansylated calmodulin", "experiment": "other fluorescence titration; 12.5 nM D-CaM, ligand added incrementally, enhancement of dansyl emission; 25 mM Tris-HCl, 120 mM KCl, 5 mM NaCl, 2 mM MgCl2, 10 mM EGTA, pH 7.4; no free Ca2+; apparent affinity (EC50 of a Hill fit)"}}}
{"binder": "GILGSGFALKVQEQHRQKHFEKRRNPAAGLIQSAWRFYATNLSRTDLHST (domain or fragment, human, UniProt O43526 310-359, looked up, helix A of human Kv7.2 (KCNQ2) Y15065, residues G310-T359; also called segment A; source: E. coli BL21-DE3, purified (GSH sepharose))", "note": "[Kv7.2 helix A (hA residues G310–T359)]", "values": [{"measurement": "EC50", "setting": "[1]", "value": 0.0656, "unit": "µM"}, {"measurement": "Kd", "setting": "[2]", "value": 0.267, "unit": "µM"}, {"measurement": "Kd", "setting": "[3]", "value": 0.017, "unit": "µM"}, {"measurement": "Kd", "setting": "[4]", "value": 0.53, "unit": "µM"}, {"measurement": "Kd", "setting": "[5]", "value": 0.169, "unit": "µM"}, {"measurement": "EC50", "setting": "[6]", "value": 0.0464, "unit": "µM"}]}
